From publication PMC11528121, “Structural basis of the bacterial flagellar motor rotational switching” (Cell Research, 2024)

B5: FliM (natural protein, UniProt P26418 1-334, looked up)
chain: MGDSILSQAEIDALLNGDSDTKDEPTPGIASDSDIRPYDPNTQRRVVRERLQALEIINERFARQFRMGLFNLLRRSPDITVGAIRIQPYHEFARNLPVPTNLNLIHLKPLRGTGLVVFSPSLVFIAVDNLFGGDGRFPTKVEGREFTHTEQRVINRMLKLALEGYSDAWKAINPLEVEYVRSEMQVKFTNITTSPNDIVVNTPFHVEIGNLTGEFNICLPFSMIEPLRELLVNPPLENSRHEDQNWRDNLVRQVQHSELELVANFADIPLRLSQILKLKPGDVLPIEKPDRIIAHVDGVPVLTSQYGTVNGQYALRVEHLINPILNSLNEEQPK
notes: FliM, flagellar motor switch protein of the C ring, Salmonella Typhimurium LT2; domains FliMN, FliMM, FliMC; Subunit of the purified complex m8; 34 copies in the C ring; also called FliMN; FliMM
B6: FliF (natural protein, UniProt P15928 1-560, looked up)
chain: MSATASTATQPKPLEWLNRLRANPRIPLIVAGSAAVAIVVAMVLWAKTPDYRTLFSNLSDQDGGAIVAQLTQMNIPYRFANGSGAIEVPADKVHELRLRLAQQGLPKGGAVGFELLDQEKFGISQFSEQVNYQRALEGELARTIETLGPVKSARVHLAMPKPSLFVREQKSPSASVTVTLEPGRALDEGQISAVVHLVSSAVAGLPPGNVTLVDQSGHLLTQSNTSGRDLNDAQLKFANDVESRIQRRIEAILSPIVGNGNVHAQVTAQLDFANKEQTEEHYSPNGDASKATLRSRQLNISEQVGAGYPGGVPGALSNQPAPPNEAPIATPPTNQQNAQNTPQTSTSTNSNSAGPRSTQRNETSNYEVDRTIRHTKMNVGDIERLSVAVVVNYKTLADGKPLPLTADQMKQIEDLTREAMGFSDKRGDTLNVVNSPFSAVDNTGGELPFWQQQSFIDQLLAAGRWLLVLVVAWILWRKAVRPQLTRRVEEAKAAQEQAQVRQETEEAVEVRLSKDEQLQQRRANQRLGAEVMSQRIREMSDNDPRVVALVIRQWMSNDHE
notes: FliF, MS ring protein, Salmonella Typhimurium LT2; RBM1, RBM2, RBM3, β-collar, C-terminal region FliFC; Subunit of the purified complex m8; 34 copies in the MS ring; also called FliFC; MS ring protein

How the values were obtained:
[1] = target: B6; assay: cryo-EM structure; 5 μL purified CCW basal body–hook complex mixed with 1 μL CheY** (2 mg/mL), 15 min at room temperature, 1.5 h on ice; CW state; C ring C34 map 5.6 Å, four protomers 4.4 Å, whole complex 4.3 Å, local maps 2.8–3.8 Å; settings: both partners purified
[2] = target: B5; assay: cryo-EM structure; basal body–hook complex in the default CCW state purified from S. Typhimurium ΔfliCD in TET buffer (10 mM Tris-HCl pH 8.0, 5 mM EDTA, 0.1% Triton X-100); C ring C34 map 5.9 Å, four protomers 4.0 Å, whole complex 7.4 Å, local maps 3.0–4.3 Å; settings: both partners purified
[3] = target: the molecule itself; assay: as above
[4] = target: B5; assay: cryo-EM structure; 5 μL purified CCW basal body–hook complex mixed with 1 μL CheY** (2 mg/mL), 15 min at room temperature, 1.5 h on ice; CW state; C ring C34 map 5.6 Å, four protomers 4.4 Å, whole complex 4.3 Å, local maps 2.8–3.8 Å; settings: both partners purified
[5] = target: T1, C ring-containing flagellar basal body–hook complex in the default CCW state (Salmonella enterica serovar Typhimurium …, UniProt P0A1J9 1-331; P26418 1-334; P26419 1-137; P15928 1-560; P54700 22-245; P54702 …); assay: as above; settings: both partners purified
T1 construct: FliG, C ring, Salmonella Typhimurium LT2; FliM, C ring, Salmonella Typhimurium LT2; FliN, C ring, Salmonella Typhimurium LT2; FliF, MS ring, Salmonella Typhimurium LT2; FliP, export apparatus, Salmonella Typhimurium LT2; FliR, export apparatus, Salmonella Typhimurium LT2; FliQ, export apparatus, Salmonella Typhimurium LT2; FliE, rod, Salmonella Typhimurium LT2; FlgB, rod, Salmonella Typhimurium …

[6] = target: B6; assay: cryo-EM structure; basal body–hook complex in the default CCW state purified from S. Typhimurium ΔfliCD in TET buffer (10 mM Tris-HCl pH 8.0, 5 mM EDTA, 0.1% Triton X-100); C ring C34 map 5.9 Å, four protomers 4.0 Å, whole complex 7.4 Å, local maps 3.0–4.3 Å; settings: both partners purified

B1: FliG (natural protein, UniProt P0A1J9 1-331, looked up)
chain: MSNLSGTDKSVILLMTIGEDRAAEVFKHLSTREVQALSTAMANVRQISNKQLTDVLSEFEQEAEQFAALNINANEYLRSVLVKALGEERASSLLEDILETRDTTSGIETLNFMEPQSAADLIRDEHPQIIATILVHLKRSQAADILALFDERLRHDVMLRIATFGGVQPAALAELTEVLNGLLDGQNLKRSKMGGVRTAAEIINLMKTQQEEAVITAVREFDGELAQKIIDEMFLFENLVDVDDRSIQRLLQEVDSESLLIALKGAEPPLREKFLRNMSQRAADILRDDLANRGPVRLSQVENEQKAILLIVRRLAETGEMVIGSGEDTYV
notes: FliG, flagellar motor switch protein of the C ring, Salmonella Typhimurium LT2; domains FliGN, FliGM, FliGCN, FliGCC; Subunit of the purified complex m8; 34 copies in the C ring; also called FliGN; FliGM
binding result [1]: binds | stoichiometry N [2]: 1 | stoichiometry N [3]: 34

B2: FliN (natural protein, UniProt P26419 1-137, looked up)
chain: MSDMNNPSDENTGALDDLWADALNEQKATTTKSAADAVFQQLGGGDVSGAMQDIDLIMDIPVKLTVELGRTRMTIKELLRLTQGSVVALDGLAGEPLDILINGYLIAQGEVVVVADKYGVRITDIITPSERMRRLSR
notes: FliN, flagellar motor switch protein of the C ring, Salmonella Typhimurium LT2; FliN1, FliN2 and FliN3 are the three copies in one protomer; Subunit of the purified complex m8; 102 copies in the C ring; also called FliN1; FliN2
stoichiometry N [2]: 3 | binding result [3]: binds

B3: CheY D13K/Y106W (constitutively active double mutant) (natural protein)
chain: MADKELKFLVVDKFSTMRRIVRNLLKELGFNNVEEAEDGVDALNKLQAGGFGFIISDWNMPNMDGLELLKTIRADSAMSALPVLMVTAEAKKENIIAAAQAGASGWVVKPFTAATLEEKLNKIFEKLGM
notes: CheY, chemotaxis signal protein, gene amplified from genomic DNA of Salmonella enterica serovar Typhimurium LT2; double mutant D13K/Y106W; Tag linked through an HRV3C protease site; residues of the site may remain at the C-terminus after cleavage; Vector pET-14b; source: E. coli BL21 (DE3), purified (Streptactin column, PreScission protease digestion, Superdex 75); not shown: Twin-Strep-tag II, …
binding result [4]: binds | stoichiometry N [5]: 34

B4: FliE (natural protein, UniProt P26462 1-104, looked up)
chain: MAAIQGIEGVISQLQATAMAARGQDTHSQSTVSFAGQLHAALDRISDRQAAARVQAEKFTLGEPGIALNDVMADMQKASVSMQMGIQVRNKLVAAYQEVMSMQV
notes: FliE, rod protein of the flagellar basal body, Salmonella Typhimurium LT2; Subunit of the purified complex m8; 6 copies in the rod; also called FliE^6
binding result [6]: binds

B5
stoichiometry N [3]: 34

B6
stoichiometry N [3]: 34

B7: FlgC (natural protein)
chain: MALLNIFDIAGSALAAQSKRLNVAASNLANADSVTGPDGQPYRAKQVVFQVDAAPGQATGGVKVASVIESQAPEKLVYEPGNPLADANGYVKMPNVDVVGEMVNTMSASRSYQANIEVLNTVKSMMLKTLTLGQ
notes: FlgC, proximal rod protein of the flagellar basal body, Salmonella Typhimurium LT2; Subunit of the purified complex m8; 6 copies in the rod; also called FlgC^1; FlgC^6
binding result [6]: binds
